In this experiment the target is TssL-His expressed in A. tumefaciens ΔtssMΔtssL (pTrc-TssL-His) (Agrobacterium tumefaciens). The experiment is described as follows: pull-down.

For “Hcp, endogenous in A. tumefaciens (natural protein)”, the Hcp signal relative to TssL-His in the bound fraction, H2O-treated cells came to 0.21.

The values above are taken from PMC3346141.
